50 sequences from the domain aggregation screens of Martell et al. (2025) can be followed below.

A short description of the data set: soluble fraction after stress (log2 fold change); higher = more stays soluble; pooled small domains, quantitative proteomics. Particulars: stress: 50 degC. The method in brief: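 Each library was heated to 50°C as a stress step. The libraries, made up of small protein domains, were pooled and analysed at high throughput by quantitative proteomics. The reported value is the base-two logarithm of the fold change in each protein's soluble amount after stress, taken as a measure of aggregation propensity. The higher the value, the more protein stays in solution.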

As for “HMVEEVDYGTFMRMIEEKNIGKVEVRAGEIVFTDKDEKQIYKTGAMEDATLTQRLYESGAEFSKDV”, the “soluble fraction (log2)” value came to 0.0146.
“HMLEQLTPRELKVLQALAQGRQNKEIAAQLVISERTVKFHVSAILSKLNVGNRTEAVTVAAQRGLISL”: the “soluble fraction (log2)” value is -1.03.
Under “HMSILSRREHEIMQWVKGGKTNIEIAQILGISARTVRNHLQNVFRKLDVINRAQAVFEVERRR” stands -2.15; under “HMASLSEREHDVAVLILQGKTYAEIGQAIFISPRTVEHHVASIRRRLEAKSRSDLIAKLRLTIGGTED”, -2.18; under “HMGPDGLFAKFREPETGKDLLITQNVFVEQVLIKGVLTRTLTDAEANTYRAPFVNPEKRFPIYVWPNELP”, 0.142.
For “HMSASSTAPGSVTLRGAILTAWTAAGGERSKMGLPVGYEVRQADGTVTQTFEKGRISVSPTGTATI”, the “soluble fraction (log2)” value is 0.0647.
For the sequence “HMQVSDLSAIDSLIDKVLSEQQAAVQDFRSGQGKAMGFLIGKVMQASDGKANPKVIRELMGKKLA”, the “soluble fraction (log2)” value was determined as 0.159.
For “HMSGGNTSAFKGKLNYEYRGNDTIITGSTYPVKELIKKAGGRWDPGSSAWIIKGRHVSDNEIF”, the “soluble fraction (log2)” value is 0.171.
For “HMSNIAQRLVLENALAKLNQEQQTIIDLRIIKGYSVAETARLLGKTESAVRTAQYRALKELAGILEED” the value was -0.86; for “HMAPTVPEVVRLEEGAARSAIEAAGLSVGSVEFRASSDPAGTVLATRPIAGRKVRPSSAVDLVLSDGRTP”, 0.0905; for “HMGSVVATLRKLIIDGHYPAGTRLAEIPVANALGVSRTPVRLAFRTLQQEGLLQTVGKRGIVVRAF”, -1.21.
For “HMTSLVRTSNLDGFEPLARSIGVDPVMELMRFGIPPDALIRENMFISFIGFIRLLEHTALAG” the value was 0.103; for “HMKYFDRDLINYIQKTLAGKKIDFHEKIVPLIIELAGSDIRRVDEIIDMAEYSGKGMHVSEEMIRELAGDV”, -0.815.
Turning to “HMTGETWAERSRALAAAGLIVMGQEAKNKIEDLPSLSPLIEAAAASETRLLTGQIIDELLAFV”, the “soluble fraction (log2)” value is -0.288.
Consider “HMKRELFVEPGMRLEHTPSKTSGPVVSFIEGVIVVIKDQLGSEHRFDPVPGFFRHEGDLVALRSPLL”, for which the “soluble fraction (log2)” value is -0.282.
With “HMDSVTLGISFNGKTRFTLDFPADAAAADIEKAALEAEQSQRYLEGMTVAKVIVVPGRIVNIVLK”, the “soluble fraction (log2)” value is -0.501.
Regarding “HMESKDIRYVQLQTVSPEEVLQALALIMPRSDVYVEPTGKLVVLHGSKETLDRAEELILALDNAV”, the “soluble fraction (log2)” value was found to be 0.0118.
Regarding “HMTIDTSNDLLNQITEATSKGPISILELKDQLNVNASDIEGELRTLIDQHLVFLKDGMLQVIPFD”, the “soluble fraction (log2)” value is -0.0624.
Turning to “HMTNNFIVTWRNYNEEVLEIDVNVKKGSMPKYNGKTPEREGYQFVGWDPEITEVTKDITYVAQFM”, the “soluble fraction (log2)” value is -0.415.
For “HMNPEDLSGVRKAAILLLTMDDEVTKDVMKGLDEEEIEAIGKEITNLKLIPDHVVHRVQEEFMTKVSK” the value was 0.0913; for “HMSSFIEAIKQSGTDSLDVIMKNGRVYRYVGIDADRLGYLLEPHQQKLSLEESIGRFYIDYIKGIYEAIE”, -1.57.
On to “HMKYKTKRDMILALMKKEILSGELKPRTRLLISEVASRYEVSEIPVREAFQVLIQEDLVRSTGAGFEVT”, for which the “soluble fraction (log2)” value was -0.744.
“HMGNFFDSAILALKNAIQENYGGNVSQAARSLGISVPTLHTWIKGDRKPSLEKLSPILDALNAKIVL”: the “soluble fraction (log2)” value was -0.726.
Regarding “HMAMSAGEVVERIREHVGHPATIKELMRVLAIPNEERYRFRRRIKQLVEAGELIRIRGNRYGLADR”, the “soluble fraction (log2)” value was -1.85.
With “HMKKDRKKMLKEGIVLFEKILRGMELSPTSEPLKKVLTSFNIQNKEDLYVKLGAGVISSEEVIKELKKK”, the “soluble fraction (log2)” value worked out at 0.183.
Consider “HMDITKPKISFEPGEMVRVVDGPFNDFSGVVEEVNYEKSKVRVAVLIFGRSTPVELQFNQIEK”, for which the “soluble fraction (log2)” value is -0.252.
In the case of “HMDFTMSEIQTAMAALPRGYRTVVQLYLVDGYSHKEIAEMLGVDVNTSKSQLSRGRKQLQAFLAAMS”, the “soluble fraction (log2)” value is -0.674.
“HMSGEDYLERILMLKEKHGNVRAIDIANSMNFSKPSVSIALHKLSENGYVVIQNNGAIELTEKGLEVAT”: the “soluble fraction (log2)” value was -0.315.
As to “HMITIDNYFNKEKELDFSSFPEALRKGHGFVSKATAHGSSWVSYHSSDAIKKTIDIYLSKLNEYLSNNAKA”, the “soluble fraction (log2)” value is -0.494.
As for “HMASRKTERINRLIDVLQHATSRVPASVLSKILGIGERSVRNYVSEVNEQGQFRIDSSSGGYRLVA”, the “soluble fraction (log2)” value was -0.147.
For “HMQYIINFEYSGMLLREYLRGVLGLSHGTLTALKKDPLGILLNGEHATVRAVLHAGDRLTLALE” the value was -3.05; for “HMNDPIGDMLTRIRNAQMRGKSTVSTPASKLRAWVLEVLASEGYIRGFERATTDNGQGELVISLD”, -0.665.
“HMIVVLKHGVTEQQMRNLIAWFKDQGVDVHVSRGIYQTVLGLVGDTSDIDVDLLRMLDIVDAVKRIT”: the “soluble fraction (log2)” value was -1.76.
For “HMGSEYILTIIPTPADATVFINGVKKNSASGVNGQILSWEVTKEGYIPQSGTFTINGKNETIEVVLQPQT”, the “soluble fraction (log2)” value worked out at 0.00105.
Turning to “HMAPNDELTRQVISVLSGTPQQAFNYKQISKKLNINDSSERRMVSNILRELAGKGEIVEVYQGKYRSKAPA”, the “soluble fraction (log2)” value came out at 0.0588.
Take “HMDETFTITFDPNGGTLNGSKTKTVSLGDIVYGKLPTASKTGYSFIGWFTEKEGGEQISSATKIIASDLTL”: the “soluble fraction (log2)” value came to 0.0253.
Regarding “HMETTEELISKTVPISYADMAALTGILDGVKSARGDIQVDDRTSTIIIHDIQSSIDEMMRLIKILD”, the “soluble fraction (log2)” value was -0.999.
As to “HMNERIKSLRKALGLTQQEFADKLGISRGNIGAYEVGKNAPSDAVISLIVRIFNTNENWLRTGEGEM”, the “soluble fraction (log2)” value was -0.145.
For “HMPSARELLATNIVRLRKEKGWSQEDLALEAGLHRTFVAHVERHARNISLDNIERLANALQVNVHILLL” the value was -3.79; for “HMNFNYPVIVKNSRINVSGVLSAAKLYTINGQLLQSYKGSGEFTSKTLTKGIYILQVDNARTKVLV”, -1.29.
For “HMKPDSEFTSQDLWQNDLAGTGSAAYRRDKMGALLGIGYGNAKRFLERLNSYGVTRSEFDEALAQLGE” the value was -0.0612; for “HMASFASRAEEVMTKLLANGQPRIKEVADAMHLSSRTLQRRLEREGVSFAELLDRLRKRLAHDMLAHS”, -0.813.
For “HMGTITKRTNPSGAVVWRAQIRINKADMPTYSESKTFSKKSLATEWLKRREAEIEANPDLIL” the value was -0.348; for “HMHPEITLHPVRANIYSISVKNATSMEIYSVSGQLVGIRELKEGTNTLDLTGYINGVYIVNLQNKAFKLVK”, -1.94; for “HMLFQQPATMIGKIGVAMSDLRPSGKIKIDDEWYDGQSEGDYILKGQEIIVVQVMNAYLIVRL”, 0.126.
On to “HMREVSPEDLALMRRIDAWHLEHPFAGARLLRDLLRPEGFQAGRRHIGTLMARMGIEALYRK”, for which the “soluble fraction (log2)” value was -0.458.
Turning to “HMIRALVPGQTLHGEIVGRNGGEVQVRLAEDMILNARVDQNIYLELGKDLTFEVKNNGATLTLSPL”, the “soluble fraction (log2)” value is -0.272.
For “HMTLDVALSKEIKYMLKEEHYLPGDKLPSERKLAELFHVQRLTVRGALNLLLQDKTIISKPRSGYYVAPKR” the value was -3.1; for “HMIQNEITLMLQVNGKLRGQIQVPSDASKEQIEQLAKDSEAAQKALAGASPKKIIVVPGRLVNIV”, -0.092; for “HMLDRNKLNELDAYIESFEDKPSHLIMILHRAQGLFGYLPKELQIYVAEKTGVPAAKVYGVVTFYSFFTMK”, -1.4.
